US20250333534A1 (HEFEI TG IMMUNOPHARMA, published 2025)

T1: Human CD155 protein (Human CD155), expressed on cells (human, UniProt P15151 21-417)
T1 construct: also called CHO-K1-human CD155; CHO-K1-CD155
T1 sequence: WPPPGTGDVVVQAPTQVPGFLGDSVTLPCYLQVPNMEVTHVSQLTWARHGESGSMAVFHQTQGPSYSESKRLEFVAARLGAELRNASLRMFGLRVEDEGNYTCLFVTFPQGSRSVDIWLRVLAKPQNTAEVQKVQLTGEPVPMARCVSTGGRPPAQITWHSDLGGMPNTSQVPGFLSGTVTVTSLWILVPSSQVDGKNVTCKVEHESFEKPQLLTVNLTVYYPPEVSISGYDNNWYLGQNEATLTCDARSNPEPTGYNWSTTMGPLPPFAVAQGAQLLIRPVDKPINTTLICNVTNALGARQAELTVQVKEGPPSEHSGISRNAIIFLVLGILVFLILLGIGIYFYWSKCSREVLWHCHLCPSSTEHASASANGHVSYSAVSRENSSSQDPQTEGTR


Target: T1, Human CD155 protein (Human CD155), …
Test: flow cytometry on CHO-K1-human CD155 cells

| Binder | binding result |
| --- | --- |
| affinity-matured humanized antibody V21 (tgi1005 V21-hIgG1/4) (antibody, V domains shown) VH: QVQLVQSGAEVKKPGASVKVSCKASGYTFTSSYISWVRQAPGQGLEWIAWIYAGTGDTNYNQKFTGRVTMTTDTSTSTAYMELRSLRSDDTAVYYCARHGYTGRGWYFAVWGQGTTVTVSS VL: QAVVTQEPSLTVSPGGTVTLTCRSSTGAVTTSNYANWVQQKPGQAFRGLIGGTNNRAPGVPARFSGSLLGDKAALTLSGAQPEDEAEYYCILWYSNHFVFGGGTKLTVL | binds |
| affinity-matured humanized antibody V40 (tgi1005 V40-hIgG1/4) (antibody, V domains shown) VH: QVQLVQSGAEVKKPGASVKVSCKASGYTFTSSYISWVRQAPGQGLEWIAWIYAGTGDTNYNQKFTGRVTMTTDTSTSTAYMELRSLRSDDTAVYYCARHGMTGRGWYFAVWGQGTTVTVSS VL: QAVVTQEPSLTVSPGGTVTLTCRSSTGAVTTSNLANWVQQKPGQAFRGLIGHTNNRAPGVPARFSGSLLGDKAALTLSGAQPEDEAEYYCILWYSNKFVFGGGTKLTVL | binds |
| affinity-matured humanized antibody V28 (tgi1005 V28-hIgG1/4/1LALA) (antibody, V domains shown) VH: QVQLVQSGAEVKKPGASVKVSCKASGYTFTSSYISWVRQAPGQGLEWIAWIYAGTGDTNYNQKFTGRVTMTTDTSTSTAYMELRSLRSDDTAVYYCARHGLTGRHWYFAVWGQGTTVTVSS VL: QAVVTQEPSLTVSPGGTVTLTCRSSTGAVTTSNIANWVQQKPGQAFRGLIGGTNNRGPGVPARFSGSLLGDKAALTLSGAQPEDEAEYYCILWYSNKFVFGGGTKLTVL | binds |
| affinity-matured humanized antibody V20 (tgi1005 V20-hIgG1/4/1LALA) (antibody, V domains shown) VH: QVQLVQSGAEVKKPGASVKVSCKASGYTFTSSYISWVRQAPGQGLEWIAWIYAGTGDTNYNQKFTGRVTMTTDTSTSTAYMELRSLRSDDTAVYYCARHGYTGRGWYFAVWGQGTTVTVSS VL: QAVVTQEPSLTVSPGGTVTLTCRSSTGAVTTSNLANWVQQKPGQAFRGLIGHTNNRAPGVPARFSGSLLGDKAALTLSGAQPEDEAEYYCALWYSNKFVFGGGTKLTVL | binds |

Further lines, results first:

| binding result | Binder |
| --- | --- |
| binds | murine CD155 antibody (mutgi1005) (antibody, mouse IgG2a, also called murine monoclonal antibody; murine antibody) heavy: QVQMQQSGAELVKPGASVKLSCKTSGFTFSSSYISWLKQKPGQSLEWIAWIYAGTGDTNYNQKFTGKAQVTVDTSSSTAYMQFSSLTTEDSAIYYCVRHGSTGRGWYFAVWGAGTTVTVSSAKTTAPSVYPLAPVCGDTTGSSVTLGCLVKGYFPEPVTLTWNSGSLSSGVHTFPAVLQSDLYTLSSSVTVTSSTWPSQSITCNVAHPASSTKVDKKIEPRGPTIKPCPPCKCPAPNLLGGPSVFIFPPKIKDVLMISLSPIVTCVVVDVSEDDPDVQISWFVNNVEVHTAQTQTHREDYNSTLRVVSALPIQHQDWMSGKEFKCKVNNKDLPAPIERTISKPKGSVRAPQVYVLPPPEEEMTKKQVTLTCMVTDFMPEDIYVEWTNNGKTELNYKNTEPVLDSDGSYFMYSKLRVEKKNWVERNSYSCSVVHEGLHNHHTTKSFSRTPGK light: QAVVTQESALTTSPGETVTLTCRSSTGAVTTSNYANWVQEKPDHLFTGLIGGTNNRAPGVPARFSGSLIGDKAALTITGAQTEDEAIYFCALWYSNHFVFGGGTKLTVLQPKSSPSVTLFPPSSEELETNKATLVCTITDFYPGVVTVDWKVDGTPVTQGMETTQPSKQSNNKYMASSYLTLTARAWERHSSYSCQVTHEGHTVEKSLSRADCS |
| binds | human-mouse chimeric antibody mutgi1005-hIgG4 (antibody, Murine variable regions fused with wild-type human IgG4 and lambda constant regions; also called mutgi1005-hlgG4; chimeric CD155 antibody) heavy: not shown light: QAVVTQESALTTSPGETVTLTCRSSTGAVTTSNYANWVQEKPDHLFTGLIGGTNNRAPGVPARFSGSLIGDKAALTITGAQTEDEAIYFCALWYSNHFVFGGGTKLTVLGQPKAAPSVTLFPPSSEELQANKATLVCLISDFYPGAVTVAWKADSSPVKAGVETTTPSKQSNNKYAASSYLSLTPEQWKSHRSYSCQVTHEGSTVEKTVAPTECS |
| binds | human-mouse chimeric antibody mutgi1005-hIgG1 (antibody, Murine variable regions fused with wild-type human IgG1 and lambda constant regions; also called chimeric CD155 antibody) heavy: not shown light: QAVVTQESALTTSPGETVTLTCRSSTGAVTTSNYANWVQEKPDHLFTGLIGGTNNRAPGVPARFSGSLIGDKAALTITGAQTEDEAIYFCALWYSNHFVFGGGTKLTVLGQPKAAPSVTLFPPSSEELQANKATLVCLISDFYPGAVTVAWKADSSPVKAGVETTTPSKQSNNKYAASSYLSLTPEQWKSHRSYSCQVTHEGSTVEKTVAPTECS |
